We go through 40 substances from US11969464B2, “Amidated peptides and their deamidated counterparts displayed by HLA-A*02 for use in immunotherapy against different types of cancers” (Immatics Biotechnologies GmbH, priority 2020, dated 2024).

In one experiment the test system is CD8+ T cells. As to the kind of experiment: In vitro T cell priming assay with aAPCs loaded with peptide/MHC complexes and anti-CD28, pMHC multimer readout. Format: cell-based, human. The conditions noted are these: percentage of positive wells and donors (among evaluable), healthy HLA-A*02+ donors. The source says: In order to obtain information regarding the immunogenicity of the TUMAPs of the present invention, the inventors performed investigations using an in vitro T cell priming assay based on repeated stimulations of CD8+ T cells with artificial antigen presenting cells (aAPCs) loaded with peptide/MHC complexes and anti-CD28 antibody.
In order to perform in vitro stimulations by artificial antigen presenting cells loaded with peptide-MHC complex (pMHC) and anti-CD28 antibody, the inventors first isolated CD8+ T cells from fresh HLA-A*02 leukapheresis products via positive selection using CD8 microbeads (Miltenyi Biotec, Bergisch-Gladbach, Germany) of healthy donors obtained from the University clinics Mannheim, Germany, after informed consent.
PBMCs and isolated CD8+ lymphocytes were incubated in T cell medium (TCM) until use consisting of RPMI-Glutamax (Invitrogen, Karlsruhe, Germany) supplemented with 10% heat inactivated human AB serum (PAN-Biotech, Aidenbach, Germany), 100 U/ml Penicillin/100 μg/ml Streptomycin (Cambrex, Cologne, Germany), 1 mM sodium pyruvate (CC Pro, Oberdorla, Germany), 20 μg/ml Gentamycin (Cambrex). 2.5 ng/ml IL-7 (PromoCell, Heidelberg, Germany) and 10 U/ml IL-2 (Novartis Pharma, Nurnberg, Germany) were also added to the TCM at this step.
Generation of pMHC/anti-CD28 coated beads, T cell stimulations and readout was performed in a highly defined in vitro system using four different pMHC molecules per stimulation condition and 8 different pMHC molecules per readout condition.
The purified co-stimulatory mouse IgG2a anti human CD28 Ab 9.3 (Jung et al., 1987) was chemically biotinylated using Sulfo-N-hydroxysuccinimidobiotin as recommended by the manufacturer (Perbio, Bonn, Germany). Beads used were 5.6 μm diameter streptavidin coated polystyrene particles (Bangs Laboratories, Illinois, USA).
800.000 beads/200 μl were coated in 96-well plates in the presence of 4×12.5 ng different biotin-pMHC, washed and 600 ng biotin anti-CD28 were added subsequently in a volume of 200 μl. Stimulations were initiated in 96-well plates by co-incubating 1×10^6 CD8+ T cells with 2×10^5 washed coated beads in 200 μl TCM supplemented with 5 ng/ml IL-12 (PromoCell) for 3 days at 37° C. Half of the medium was then exchanged by fresh TCM supplemented with 80 U/ml IL-2 and incubating was continued for 4 days at 37° C. This stimulation cycle was performed for a total of three times. For the pMHC multimer readout using 8 different pMHC molecules per condition, a two-dimensional combinatorial coding approach was used as previously described (Andersen et al., 2012) with minor modifications encompassing coupling to 5 different fluorochromes. Finally, multimeric analyses were performed by staining the cells with Live/dead near IR dye (Invitrogen, Karlsruhe, Germany), CD8-FITC antibody clone SK1 (BD, Heidelberg, Germany) and fluorescent pMHC multimers. For analysis, a BD LSRII SORP cytometer equipped with appropriate lasers and filters was used. Peptide specific cells were calculated as percentage of total CD8+ cells. Evaluation of multimeric analysis was done using the FlowJo software (Tree Star, Oregon, USA). In vitro priming of specific multimer+CD8+ lymphocytes was detected by comparing to negative control stimulations.

For a further experiment, the target named is HLA-A*02:01 (Homo sapiens, UniProt P04439, D140Y/D185E/D98H/E176V/E277Q/G131W/G231S/I119V/I121R/I166T/I218V/L300P/L318F/N151K/N90K/P208A/P217A/Q86G/Q94H/R138H/R169H/T345S). As to the kind of experiment: MHC binding assay (UV-ligand exchange, anti-β2m ELISA). To be noted: peptide exchange yield, binding to HLA-A*02:01. The source says: Candidate peptides for T cell based therapies according to the present invention were further tested for their MHC binding capacity (affinity). The individual peptide-MHC complexes were produced by UV-ligand exchange, where a UV-sensitive peptide is cleaved upon UV-irradiation and exchanged with the peptide of interest as analyzed. Only peptide candidates that can effectively bind and stabilize the peptide-receptive MHC molecules prevent dissociation of the MHC complexes. To determine the yield of the exchange reaction, an ELISA was performed based on the detection of the light chain (β2m) of stabilized MHC complexes. The assay was performed as generally described in Rodenko et al. (Rodenko et al., 2006).
96 well MAXISorp plates (NUNC) were coated over night with 2 μg/ml streptavidin in PBS at room temperature, washed 4× and blocked for 1 h at 37° C. in 2% BSA containing blocking buffer. Refolded HLA-A*02:01/MLA-001 monomers served as standards, covering the range of 15-500 ng/ml. Peptide-MHC monomers of the UV-exchange reaction were diluted 100-fold in blocking buffer. Samples were incubated for 1 h at 37° C., washed four times, incubated with 2 μg/ml HRP conjugated anti-β2m for 1 h at 37° C., washed again and detected with TMB solution that is stopped with […]. Absorption was measured at 450 nm. Candidate peptides that show a high exchange yield (preferably higher than 50%, most preferred higher than 75%) are generally preferred for a generation and production of antibodies or fragments thereof, and/or T cell receptors or fragments thereof, as they show sufficient avidity to the MHC molecules and prevent dissociation of the MHC complexes.
On the technique in general: An ELISA detects its analyte on a solid surface through an enzyme-linked reagent.

As to “6 (NLYNDLTNV; peptide displayed by HLA-A*02) [compound 6]”, the “Wells positive [%]” value in the experiment with CD8+ T cells is given as “+ (<20% = +)”. Moreover, the Peptide exchange entry with HLA-A*02:01 is on record as “+++ (≥50% = +++)”. On the same counts, the results for “7 (ALADLTGTV; peptide displayed by HLA-A*02) [compound 7]” are “+ (<20% = +)” and “++++ (≥75% = ++++)”. On the same counts, the results for “8 (KLAPDLTEL; peptide displayed by HLA-A*02) [compound 8]” are “+ (<20% = +)” and “+++ (≥50% = +++)”. On the same counts, the results for “47 (VIDSTLVKV; peptide displayed by HLA-A*02) [compound 47]” are “++ (20%-49% = ++)” and “+++ (≥50% = +++)”. Take “65 (ILLDKSTVL; peptide displayed by HLA-A*02) [compound 65]”: the “Wells positive [%]” value in the experiment with CD8+ T cells is listed as “+ (<20% = +)”. The Peptide exchange result with HLA-A*02:01 is given as “++++ (≥75% = ++++)”. With “68 (RLQDTTIGL; peptide displayed by HLA-A*02) [compound 68]”, the Peptide exchange entry with HLA-A*02:01 was “++++ (≥75% = ++++)”. The same measure, in the same setting: as for “69 (SLLDENDVSSYL; peptide displayed by HLA-A*02) [compound 69]”, the entry is “++++ (≥75% = ++++)”. The same measure, in the same setting: the same measure for “70 (SMASFLKDV; peptide displayed by HLA-A*02) [compound 70]”: “++++ (≥75% = ++++)”; for “71 (YLGAVFDL; peptide displayed by HLA-A*02) [compound 71]”: “++++ (≥75% = ++++)”. Same read-out and setting: the same measure for “72 (ALDSTNSEL; peptide displayed by HLA-A*02) [compound 72]”: “++++ (≥75% = ++++)”. Take “73 (ALMDVSQNV; peptide displayed by HLA-A*02) [compound 73]”: in the experiment with HLA-A*02:01, the Peptide exchange entry is “++++ (≥75% = ++++)”. The same measure, in the same setting: the same measure for “74 (KILDFTGPLFL; peptide displayed by HLA-A*02) [compound 74]”: “++++ (≥75% = ++++)”; for “75 (KLHDTSFCL; peptide displayed by HLA-A*02) [compound 75]”: “++++ (≥75% = ++++)”. “76 (SLLRDFTLV; peptide displayed by HLA-A*02) [compound 76]”: the “Wells positive [%]” value in the experiment on CD8+ T cells is “+ (<20% = +)”. The Peptide exchange result with HLA-A*02:01 was “++++ (≥75% = ++++)”. With “77 (YLHGFDLSL; peptide displayed by HLA-A*02) [compound 77]”, the Peptide exchange entry in the experiment with HLA-A*02:01 is on record as “++++ (≥75% = ++++)”. On the same count and under the same terms, the same measure for “78 (AIDQTITEA; peptide displayed by HLA-A*02) [compound 78]”: “+++ (≥50% = +++)”; for “79 (ALAGLVYDA; peptide displayed by HLA-A*02) [compound 79]”: “++++ (≥75% = ++++)”; for “80 (ALDSSLQLL; peptide displayed by HLA-A*02) [compound 80]”: “++++ (≥75% = ++++)”. Same read-out and setting: the same measure for “81 (AVDKTQTSV; peptide displayed by HLA-A*02) [compound 81]”: “+++ (≥50% = +++)”; for “82 (FLNPDGSDCTL; peptide displayed by HLA-A*02) [compound 82]”: “++++ (≥75% = ++++)”; for “83 (FLNVDVSEV; peptide displayed by HLA-A*02) [compound 83]”: “++++ (≥75% = ++++)”. The same measure, in the same setting: as for “84 (KMLDETVLV; peptide displayed by HLA-A*02) [compound 84]”, the entry is “+++ (≥50% = +++)”; as for “85 (LLDITNPVL; peptide displayed by HLA-A*02) [compound 85]”, “++++ (≥75% = ++++)”; as for “86 (NLADNTILV; peptide displayed by HLA-A*02) [compound 86]”, “++++ (≥75% = ++++)”. On to “87 (NMYDLTFHV; peptide displayed by HLA-A*02) [compound 87]”, for which the Peptide exchange entry in the experiment with HLA-A*02:01 is given as “++++ (≥75% = ++++)”. On the same count and under the same terms, the same measure for “88 (RLLDETVDVTI; peptide displayed by HLA-A*02) [compound 88]”: “++++ (≥75% = ++++)”; for “89 (SLFIDVTRV; peptide displayed by HLA-A*02) [compound 89]”: “++++ (≥75% = ++++)”. The same measure, in the same setting: the same measure for “90 (VLDGTEVNL; peptide displayed by HLA-A*02) [compound 90]”: “++++ (≥75% = ++++)”; for “91 (VLKDGTLVI; peptide displayed by HLA-A*02) [compound 91]”: “++ (≥20% =++)”. Same read-out and setting: as for “92 (YLADFSHAT; peptide displayed by HLA-A*02) [compound 92]”, the entry is “++++ (≥75% = ++++)”; as for “93 (YLDGTFRLL; peptide displayed by HLA-A*02) [compound 93]”, “+++ (≥50% = +++)”; as for “94 (YLWWVNDQSL; peptide displayed by HLA-A*02) [compound 94]”, “++++ (≥75% = ++++)”. Take “95 (KLAPEDLADLTAL; peptide displayed by HLA-A*02) [compound 95]”: the Peptide exchange result with HLA-A*02:01 was “++++ (≥75% = ++++)”.

Take “96 (KLDASLPAL; peptide displayed by HLA-A*02) [compound 96]”: the “Wells positive [%]” value with CD8+ T cells is on record as “+ (<20% = +)”. For the same substance, the Peptide exchange result in the experiment with HLA-A*02:01 is “++++ (≥75% = ++++)”. The matching figures for “97 (KLLDGSQRV; peptide displayed by HLA-A*02) [compound 97]”: “+ (<20% = +)” and “+++ (≥50% = +++)”. The matching figures for “98 (NLLADVSTV; peptide displayed by HLA-A*02) [compound 98]”: “+ (<20% = +)” and “+++ (≥50% = +++)”. Consider “99 (NLLDHSSMFL; peptide displayed by HLA-A*02) [compound 99]”, for which the Peptide exchange result in the experiment with HLA-A*02:01 is reported as “++++ (≥75% = ++++)”. As for “100 (SLLFQDITL; peptide displayed by HLA-A*02) [compound 100]”, the “Wells positive [%]” value in the experiment on CD8+ T cells is listed as “+ (<20% = +)”. Besides, the Peptide exchange entry with HLA-A*02:01 is “++++ (≥75% = ++++)”. The matching figures for “101 (TLDATVVEL; peptide displayed by HLA-A*02) [compound 101]”: “++ (20%-49% = ++)” and “++++ (≥75% = ++++)”. Turning to “102 (WLIDKSMEL; peptide displayed by HLA-A*02) [compound 102]”, in the experiment with HLA-A*02:01, the Peptide exchange entry was “++++ (≥75% = ++++)”.
